Experimental data taken from PMC8111002 (Communications Biology, 2021).

Columns and labels:
[1] = target: Stx2a A-subunit (enterohemorrhagic Escherichia coli, UniProt P09385 23-319); test: crystal structure; conditions: both partners purified
[2] = target: the molecule itself; test: crystal structure

B1: Stx2a B-subunit pentamer of the holotoxin (untagged) (natural protein)
chain: ADCAKGKIEFSKYNEDDTFTVKVDGKEYWTSRWNLQPLLQSAQLTGMTVTIKSSTCESGSGFAEVQFNND
binding result [1]: binds | binding result [2]: binds
